# Assay results from patent publication US9580487B2, “Method of treating stomach or bowel-related disorders by administering glucagon-like-peptide-2 (GLP-2) analogues” (Zealand Pharma A/S, priority 2005, dated 2017).
# Entries after “also recorded” stand apart in the source; their conditions may differ. No end group written: not given here.
# Key:
# [1] = Chemical stability testing: incubation in HCl, NaOH, H2O2 or NH4HCO3 at 40° C., remaining purity by RP-HPLC; format: physicochemical; details: for Stability during acid hydrolysis (in words): 0.1 M HCl, 12 days; for Stability during acid hydrolysis (in words) / Purity H2O2 0.5% 3 days / Purity HCl 0.1M 12 days / Purity NH4HCO3 0.1M 6 days: 40° C.; for Purity H2O2 0.5% 3 days / Purity HCl 0.1M 12 days / Purity NH4HCO3 0.1M 6 days: 2 mg/ml, relative to the purity at T=0; for Purity H2O2 0.5% 3 days / Purity HCl 0.1M 12 days: RP-HPLC; for Purity NH4HCO3 0.1M 6 days: pH 8, RP-HPLC
# Procedure: The GLP-2 analogues were dissolved in purified water and subsequently diluted in solutions containing HCl, NaOH, H2O2 or NH4HCO3. The solutions were incubated at 40° C. to produce hydrolysis, deamidation and oxidation products. The samples were analyzed by RP-HPLC and the percentage of remaining intact compound was determined as a measure for the relative stability. The major degradation products were tentatively identified by LC-MS.
# The GLP-2 analogues tested and the reference Gly^2-GLP-2, ZP1559 (SEQ ID NO:54), were dissolved in water and subsequently diluted into solutions containing HCl, NaOH, H2O2 or NH4HCO3. The samples were incubated at 40° C. to generate hydrolysis, deamidation and oxidation products, respectively. The compounds were analysed by RP-HPLC for purity of the original main peak and by LC-MS for confirmation of the identity by mass of the main peak and major degradation products.
# The GLP-2 analogues were first dissolved in MQW to a concentration of 4 mg/ml and then further diluted in the stress solutions at a 1:1 ratio (e.g. 125 μl plus 125 μl). The final concentrations were 2 mg/ml of the GLP-2 analogues for stress conditions with 0.1 M HCl, 0.01M NaOH, 0.1 M NH4HCO3 and 0.5% H2O2, respectively.
# The solutions were incubated at 40° C. in the dark and then diluted in Eluent A to a concentration of 0.5 mg/ml (addition of 750 μl) prior to analyses by RP-HPLC and by LC-MS.
# The RP-HPLC analyses were performed on an Agilent Series 1100 HPLC system under control of the ChemStation (Revision A.08.03 [847]) software from Agilent Technologies, Inc. The raw data and the results of the peak integration were deposited on the ChemStore C/S server by the use of Agilent Technologies Revision B01.03 software.
# The results are shown in Table 9 as the compound purity measured by RP-HPLC after incubation under stress conditions. This purity is a measure for the remaining intact compound after incubation in stress solutions, relative to the purity measured a T=0.
# male C57BL mice = assay: Dose-response effect on intestinal growth (SI mass, SI-Colon Sensitivity Index, colon and stomach mass); format: in vivo; details: 5-405 nmol/kg s.c. b.i.d. for three days
# Procedure: Values are means±SEM. *: P<0.05 relative to the equimolar dose of [Gly2]GLP-2 (SEQ ID NO:54).
# FIG. 2 is a set of graphs showing full dose-response data of four small intestine selective compounds (compound nos. 1846 (SEQ ID NO:34), 1855 (SEQ ID NO:43), 1848 (SEQ ID NO:36), 1858 (SEQ ID NO:46)) on the Small Intestine (SI)-to-Colon Sensitivity Index mice relative to the non-selective reference compound [Gly2]GLP-2 (SEQ ID NO:54). Compounds were administered by subcutaneous injection b.i.d. for three days in C57BL mice at the following doses: 0 (vehicle), 5, 15, 45, 135, 405 nmol/kg (n=6/dose group). Responses at each dose level were compared with responses obtained at the same dose level in pair-treated mice treated with the non-selective reference compound [Gly2]GLP-2 (SEQ ID NO:54). The SI-Colon Sensitivity Index was calculated as SI-mass relative to colon mass and the Sensitivity Index at each dose level was normalized to the response observed with the non-selective reference compound [Gly2]GLP-2 (SEQ ID NO:54). […] Values are means±SEM. *: P<0.05 relative to the equimolar dose of [Gly2]GLP-2.
# FIG. 4 is a set of graphs showing full dose-response data of three small intestine selective compounds (compound nos. 1857 (SEQ ID NO:45), 1820 (SEQ ID NO:10), and 1849 (SEQ ID NO:37)) on the Small Intestine (SI)-to-Colon Sensitivity Index mice relative to the non-selective reference compound [Gly2]GLP-2 (SEQ ID NO:54). Compounds were administered by subcutaneous injection b.i.d. for three days in C57BL mice at the following doses: 0 (vehicle), 5, 15, 45, 135, 405 nmol/kg (n=6/dose group). Responses at each dose level were compared with responses obtained at the same dose level in pair-treated mice treated with the non-selective reference compound [Gly2]GLP-2 (SEQ ID NO:54). The SI-Colon Sensitivity Index was calculated as SI-mass relative to colon mass and the Sensitivity Index at each dose level was normalized to the response observed with the non-selective reference compound [Gly2]GLP-2 (SEQ ID NO:54). […] Values are means±SEM. *: P<0.05 relative to the equimolar dose of [Gly2]GLP-2 (SEQ ID NO:54).
# Compounds were administered by subcutaneous injection b.i.d. for three days in C57BL mice at the following doses: 0 (vehicle), 5, 15, 45, 135, 405 nmol/kg (n=6/dose group). […] Values are means±SEM. *: P<0.05 relative to the vehicle.
# The dose-response effect of 1820 (SEQ ID NO:10), 1855 (SEQ ID NO:43), ZP1846 (SEQ ID NO:34), 1858 (SEQ ID NO:46), 1849 (SEQ ID NO:37), 1848 (SEQ ID NO:36), and 1857 (SEQ ID NO:45) on small intestinal mass was determined in male C57BL mice. Individual groups (n=6) of mice were given 5, 15, 45, 135 or 405 nmol/kg of each compound, s.c, twice daily for three consecutive days. For comparison purposes other groups of animals were given either equimolar doses of [Gly2]GLP-2 (SEQ ID NO:54) or vehicle (phosphate buffered saline, pH 7.4) in the same dosing regimen. Twenty-four hours after the last dose of compound had been given the mice were sacrificed and the small intestine (from the pylorus to the cecum emptied and weighed to determine the effect on small intestinal mass.
Substance,Stability during acid hydrolysis (in words) [1],Purity H2O2 0.5% 3 days [1] [%],Purity HCl 0.1M 12 days [1] [%],Purity NH4HCO3 0.1M 6 days [1] [%],SI-Colon Sensitivity Index (SI mass relative to colon mass) relative to [Gly2]GLP-2 (male C57BL mice),"Small intestinal mass (SI-BW ratio), maximal response relative to [Gly2]GLP-2 (male C57BL mice)","Growth stimulation of small intestine, colon and stomach mass (male C57BL mice; vs vehicle)","Stability under accelerated oxidation (in words) ([1]; 0.5% H2O2, 40° C., 3 days)"
"[Gly2, Glu3, Leu10, Ser11, Ala16,24,28]hGLP-2(1-33)-NH2 [Compound 1857]",tendency of slightly higher stability,59,86,96,increased maximal small intestinal sensitivity relative to [Gly2]GLP-2; also recorded: increased selectivity for causing growth of the small intestine relative to the colon,maximal responses that were significantly greater than [Gly2]GLP-2,,
"[Gly2, Glu3, Ser8,11, Leu10, Ala16,24,28]hGLP-2(1-33)-(Lys)6-NH2 (HGEGSFSSELSTILDALAARDFIAWLIATKITDKKKKKK-NH2) [Compound 1846]",,64,70,82,increased maximal small intestinal sensitivity relative to [Gly2]GLP-2; also recorded: increased selectivity for causing growth of the small intestine relative to the colon,maximal responses that were significant greater than [Gly2]GLP-2,,
"[Gly2, Glu3, Thr5, Ser8, Leu10, Ala11,16,24,28]hGLP-2(1-33)-(Lys)6-NH2 (HGEGTFSSELATILDALAARDFIAWLIATKITDKKKKKK-NH2) [Compound 1848]",,68,63,93,increased maximal small intestinal sensitivity relative to [Gly2]GLP-2; also recorded: increased selectivity for causing growth of the small intestine relative to the colon,maximal responses that were significant greater than [Gly2]GLP-2,only produced dose-dependent growth stimulation in the small intestine,
"[Gly2, Glu3, Thr5, Ser8, Leu10, Ala11,16,24,28]hGLP-2(1-33)-NH2 [Compound 1855]",tendency of slightly higher stability,14,85,97,increased maximal small intestinal sensitivity relative to [Gly2]GLP-2; also recorded: increased selectivity for causing growth of the small intestine relative to the colon,maximal responses that were significant greater than [Gly2]GLP-2,,unexplainable low stability
